The values below come from patent publication US20040103447A1, “Schizophrenia-like mental disease model animal, method of constructing the same and use thereof” (priority 2001, published 2004).

Assay [1] concerns SD rats. Description: Startle response intensity to 120 db sound after neonatal subcutaneous administration. In kind it is in vivo, rat. Particulars: 1.0 mg/kg s.c. 10 times from 2 days after birth, compared to cytochrome-C administration group. The method, then: As the animal, SD rats (Japan SLC) were used from 2 days after birth. As a reagent, human recombinant interleukin 1α and cytochrome-C (Sigma) were each dissolved in physiological saline at 40 μg/mL and used. The reagents were subcutaneously administered 10 times in total (up to 11 days after birth) into the neck at 25 μL (each 1.0 mg/kg) per 1 g of rat body weight […] from 2 days after birth. From 21 days after birth, startle response intensity and prepulse inhibition were measured with an apparatus of measuring startle response of small animal (San Diego Instruments). That is, as a sensory stimulus to induce a startle response, a sound stimulation was used, and as a prepulse stimulation, a sound pressure stimulus of 75 db was given, which was 5 db higher than the environmental noise (background noise) level. After 100 milli-seconds, a pulse stimulus of a sound pressure of 120 db was given. The ratio of decrease in the startle response when prepulse was combined to the startle response with 120 db alone was considered as the prepulse inhibition (PPI).

In assay [2] the test system is SD rats. Description: Prepulse inhibition (PPI) in startle response after neonatal subcutaneous administration. The format is in vivo, rat. Particulars: 75 db prepulse, 120 db pulse after 100 ms, 1.0 mg/kg s.c. 10 times from 2 days after birth, compared to cytochrome-C group. An excerpt: The prepulse inhibition in startle response is a test for perception-response ability using a startle response, which can be commonly evaluated in human and animals, as an index. This test is characterized in that abnormalities in attention and ability to process information in brain, which are considered to be the main disease state of schizophrenia, can be scientifically and objectively evaluated. The test itself is a measurement of decrease in a fright startle response to a big sound, which is attributable to the previous application of a weak sound stimulus (prepulse) of the level incapable of causing a fright startle response, 30-150 mSec before causing a fright startle response by making a noise of about 120 db. The decrease produced by the prepulse is called a prepulse inhibition, which is known to indicate abnormal decrease in schizophrenia patients and schizophrenia animal models (Braff D. L., Geyer M. A., Arch. Gen. Psychiatry, 47, 181-188, 1990).
As the animal, SD rats (Japan SLC) were used from 2 days after birth. As a reagent, human recombinant interleukin 1α and cytochrome-C (Sigma) were each dissolved in physiological saline at 40 μg/mL and used. […] From 21 days after birth, startle response intensity and prepulse inhibition were measured with an apparatus of measuring startle response of small animal (San Diego Instruments). […]

B1: IL-1α: human recombinant interleukin 1α, a cytokine, dissolved in physiological saline and administered to neonatal rats to induce the model (protein, UniProt P01583 113-271, looked up)
Interleukin-1 alpha: SAPFSFLSNVKYNFMRIIKYEFILNDALNQSIIRANDQYLTAAALHNLDEAVKFDMGAYKSSKDDAKITVILRISKTQLYVTAQDEDQPVLLKEMPEIPKTITGSETNLLFFWETHGTKNYFTSVAHPNLFIATKQDYWVCLAGGPPSITDFQILENQA
Regarding B1, the “intensity of startle response to the sound pressure of 120 db” value in the assay on SD rats [1] (22 days after birth, FIG. 1B) is “such abnormality was not found”; in the assay with SD rats [1] (60 days after birth, FIG. 1A), “significant increase”. For the same molecule, the prepulse inhibition result in the assay with SD rats [2] (22 days after birth, FIG. 2B) is recorded as “such abnormality was not found”; with SD rats [2] (60 days after birth, p<0.05, FIG. 2A), “significant decrease”.
